Test results from paper PMC11349758.

What was measured:
STAT5B = STAT5B (UniProt P42232); test: anti-STAT5A IP, anti-STAT5B blot; settings: reference: WT T cells, IL-2 stimulated; sites Y694
STAT5A = STAT5A (UniProt P42230); test: anti-STAT5A IP, anti-STAT5B blot; settings: reference: WT T cells, IL-2 stimulated; sites Y699

| binding against the reference (STAT5B) | binding against the reference (STAT5A) | Substance |
| --- | --- | --- |
| lost |  | STAT5A (from UniProt P42230) Stat5a KI (Y694F) T cells, IL-2 stimulated |
|  | lost | STAT5B (from UniProt P42232) Stat5b KI (Y699F) T cells, IL-2 stimulated |
